Positions of bridges follow the written chain, without caps; N, C: chain ends. Residues, ends and D or L forms follow the SMILES beside them. No end group written: not given here.
Assays:
LRP6 E1 = molecular target: T1, LRP6 E1 (Homo sapiens, UniProt O75581); test: Synthetic peptide competition binding to LRP6 E1; conditions: synthetic peptides
T1 construct: construct E1-amino acids A20-D325 of LPR6; made in house; host or cells: Tni insect cells (baculovirus, secreted)
T1 sequence (O75581 20-325): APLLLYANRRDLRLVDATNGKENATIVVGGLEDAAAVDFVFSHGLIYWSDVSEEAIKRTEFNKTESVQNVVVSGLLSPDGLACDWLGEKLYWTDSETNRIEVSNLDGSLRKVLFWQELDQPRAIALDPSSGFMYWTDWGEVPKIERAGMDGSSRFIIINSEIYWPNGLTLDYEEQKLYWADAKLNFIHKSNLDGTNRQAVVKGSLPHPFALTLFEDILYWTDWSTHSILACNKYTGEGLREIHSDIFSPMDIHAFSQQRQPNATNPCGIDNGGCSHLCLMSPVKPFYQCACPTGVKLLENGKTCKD
Procedure: Alternatively, affinities were determined by fluorescence polarization (FP). A fluorescein-modified peptide probe (30 nM) was mixed with LRP5 or LRP6 E1 domain at a concentration suitable for the affinity of the particular target-probe combination (approximately Kd). Competing test agent (protein or peptide) was then added and FP monitored as a function of concentration of the test agent Inhibition constants were obtained by fitting the resulting curves to standard equations using the program KaleidaGraph (Synergy Software).
Peptide affinities were also determined by competition with phage displaying a binding peptide (competition phage ELISA). Serial dilutions of test peptide were mixed with an appropriate (non-saturating) concentration of phage before exposing the mixture to target and allowing it to reach equilibrium. After washing to remove unbound material, bound phage were detected by incubation with anti-M13 antibody-horseradish peroxidase (HRP) conjugate and exposure to a suitable colorometric HRP substrate.
Finally, peptide affinities were also determined by competition ELISA. Maxi-Sorb plates (Nunc) were coated with streptavidin or NeutrAvidin (5 μg/mL in phosphate-buffered saline (PBS); overnight, 4° C.) then blocked with 0.2% bovine serum albumin (BSA) in PBS (1 h, room temperature). A solution (500 nM in PBS) of biotinylated E1-binding peptide Ac-[…](biotin)-am (disulfide) was added to each well for 30 min, and the wells were then washed 3× with PBS containing 0.05% Tween-20 to remove excess peptide. His-tagged E1 domain or FLAG-tagged E1E2 protein (5-10 nM final concentration) was preincubated for 15 minutes with serially diluted test peptide before addition of the mixture to wells of the assay plate for 30 min. Wells were washed and then probed for bound LRP6 by addition of Qiagen penta His-HRP conjugate or Sigma anti-FLAG M2 HRP conjugate (1:2000 dilution in PBS, 0.2% BSA, 0.05% Tween-20) for 30 min. After washing, TMB substrate was added (Kirkegaard and Perry Laboratories). Wells were quenched with 1 M H3PO4 and plates read at 450 nm. […]

[1] = molecular target: T2, human LRP6 construct E1E2 (amino acids A20-E631) (human, UniProt O75581 20-631, biotinylated for biolayer interferometry); test: BLI affinity
T2 construct: range 20-631; also called LRP6 E1E2
T2 sequence (looked up): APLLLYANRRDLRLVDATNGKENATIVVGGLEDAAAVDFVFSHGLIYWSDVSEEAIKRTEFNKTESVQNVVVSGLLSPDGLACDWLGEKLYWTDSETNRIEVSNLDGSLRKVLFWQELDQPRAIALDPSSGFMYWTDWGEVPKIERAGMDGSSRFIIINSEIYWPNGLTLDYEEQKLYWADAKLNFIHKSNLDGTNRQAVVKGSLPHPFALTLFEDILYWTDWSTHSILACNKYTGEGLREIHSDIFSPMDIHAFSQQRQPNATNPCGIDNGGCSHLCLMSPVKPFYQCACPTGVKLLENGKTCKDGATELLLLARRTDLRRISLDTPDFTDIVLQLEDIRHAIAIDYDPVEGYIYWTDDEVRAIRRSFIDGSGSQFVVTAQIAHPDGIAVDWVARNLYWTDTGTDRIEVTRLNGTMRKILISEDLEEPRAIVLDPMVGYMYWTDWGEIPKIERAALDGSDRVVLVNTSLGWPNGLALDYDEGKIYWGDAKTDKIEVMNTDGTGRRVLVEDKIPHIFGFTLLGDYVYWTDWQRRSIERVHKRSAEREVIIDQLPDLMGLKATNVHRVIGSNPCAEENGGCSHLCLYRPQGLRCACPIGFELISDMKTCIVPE
Procedure: (§1) Binding kinetics were measured by biolayer interferometry using an Octet Red instrument (ForteBio) as previously described (11). Streptavidin (SA) biosensors were loaded with biotinylated hLRP6 in 50 mMTris, pH 8, 300 mM NaCl, 5% (v/v) glycerol, and 0.05% (w/v) Triton X-100. The loaded biosensors were washed in the same buffer before carrying out association and dissociation measurements for the indicated times. The Kd of each interaction was determined using steady state-analysis through the Octet Red software v6.3. Each reported value represents an average of three or more experiments at different concentrations, with a fitted experimental curve for which the square of the correlation coefficient (R²) is above 0.96.

Wnt1-dependent signaling = test: Wnt-dependent TOPbrite luciferase reporter assay, cells transfected with Wnt1; format: cell-based; conditions: cells stably transfected with reporter, transiently with Wnt1
Procedure: FIG. 12. Induction of a Wnt/β-catenin reporter in the presence or absence of wild-type and mutant inhibitors. Cells were transfected by Wnt1 (binds to LRP6 E1E2). Dkk1 and sclerostin variants, or the control inhibitor Fz8 CRD, were used at the indicated doses.
Wnt signaling was assessed either in mouse fibroblast L-cells or in HEK293s cells. The luciferase reporter assay in 293 cells was performed as described (52). The mouse fibroblast L-cell imaging assay was conducted essentially as described(53). Cells were treated with Wnt3a, Fz8 CRD ((US Patent Publication 20080299136; (54), LRP6, or Dkk1, or combinations of these proteins, as indicated and processed after an additional 6 h at 37° C./5% CO2.
To test whether the observed effects on binding between purified proteins were relevant to cellular signaling, Dkk1 and sclerostin activities were tested further in a Wnt-dependent TOPbrite luciferase reporter assay (52). Cells stably transfected with reporter were transfected transiently with Wnt1. The Wnt-transfected cells were treated with purified Dkk1 or sclerostin variants, and the effect on reporter induction was measured (FIG. 12). […] This is consistent with earlier observations that Wnt1 belongs to a class of Wnts signaling through the E1E2 portion of to LRP5/6 (11, 52). The Dkk1 and sclerostin mutants show activities consistent with their binding to LRP6 (FIG. 12). Sclerostin Ile119Glu (“NXI” motif) is impaired relative to wild-type in its ability to inhibit Wnt1-driven signaling, as is Dkk1 Ile42Glu.

[2] = molecular target: T3, human LRP6 construct E1 (amino acids A20-D325) (human, UniProt O75581 20-325); test: X-ray co-crystal structure
T3 construct: range 20-325; In the Fab crystal E1 arose from E1E2 degraded beyond Arg 335; residues Ala20 to Lys324 were traced; also called LRP6 E1; E1 domain
T3 sequence (looked up): T1 sequence (O75581 20-325)
Text: The diffraction data were collected using a monochromatic X-ray beam (12398.1 eV) at the Advanced Light Source (ALS) beam line 5.0.2. The X-ray detection device was an ADSC quantum-210 CCD detector placed 350 mm away from the crystal. Alternatively, data were collected at Stanford Synchrotron Radiation Laboratory (SSRL71), Advanced Photon Souce (APS211DF), or in-house using a Rigaku X-ray generator model 007HF coupled to a Rigaku CCD camera (007HF/Saturn 944+). Prior to data collection, crystals were transferred into cryo-protective solutions containing 25% glycerol, followed by flash freezing in liquid nitrogen. Rotation method was applied to a single crystal for collection of the complete data set, with 1° oscillation per frame and total wedge size of 180°. The data were then indexed, integrated, and scaled using program HKL2000 (45). The LRP6 E1/Fab structure was phased by the molecular replacement (MR) method using program Phaser (CCP4, Daresbury, England). […] The search models of Fab subunits were derived from the crystal structure of an HGFA/Fab complex (46). The search model of the β-propeller domain was a homology model generated through the ESyPred3D web server (47); the structure of the extracellular domain of LDL receptor (48) was used as the homology modeling template. […] LRP6-peptide complex structures were determined by molecular replacement, using the LRP6E1 domain from the Fab complex as the search model. Peptides were built manually into the electron density. Manual rebuilding was done with the program COOT (49). Structure refinement was carried out with programs REFMAC5 (50) and PHENIX (51) using the maximum likelihood target functions, anisotropic individual B-factor refinement (peptide complexes only.

[3] = test system: LRP6 E1E2 variants with LRP5 BMD substitutions; test: Steady-state affinity for LRP6 E1E2 variants carrying LRP5 BMD substitutions; format: binding, human
Procedure: FIG. 13. Introduction of LRP5 BMD substitutions into LRP6 E1E2 lowers affinity for Wnt inhibitors. The five substitutions characterized are indicated on the y-axis. Steady-state affinity measurements were made for Wnt9b, Dkk1, and sclerostin binding to each of the LRP6 variants.
as §1, with “(R^2)” for “(R²)”
Cells transfected with LRP5 variants carrying BMD mutations show reduced binding to sclerostin and are less sensitive to sclerostin inhibition of Wnt10b or Wnt6 signaling (70). To further test the effects of the BMD substitutions, we introduced several of them into LRP6 E1E2, with the results shown in FIG. 13. LRP6 E1E2 Gly158Val could not be expressed in insect cells. […] Importantly, not only is the binding to sclerostin affected (70), but the binding of Dkk1 to its E1 interaction site is also impaired.

amide-cyclized variant of the Dkk1 7-mer peptide: Dkk1 7-mer with Ser2 substituted by Lys and Asn7 by Asp, side chains joined by an amide bond (NKNAIKD; lactam 2-7)
binding / affinity for LRP6 E1 (in words) (LRP6 E1; listed as cyclized peptide): binds
binding / affinity for LRP6 E1 (in words) (LRP6 E1; listed as target cyclic peptide): affinity equivalent to the parent Dkk1 peptide

CC[C@H](C)[C@@H]1NC(=O)[C@H](CO)NC(=O)[C@H](CC(N)=O)NC(=O)[C@H]([C@@H](C)O)NC(=O)[C@@H](NC(=O)[C@@H](N)CO)CSSC[C@@H](C(=O)N[C@@H](Cc2ccc(O)cc2)C(=O)NCC(=O)O)NC(=O)[C@H](CCC(N)=O)NC(=O)[C@@H]2CCCN2C(=O)[C@@H]2CCCN2C1=O [BBI mimetic] (H-SCTNSIPPQCYG-OH; disulfide 2-10; N-terminus and C-terminus assumed)
binding / affinity for LRP6 E1 (in words) (LRP6 E1): binds

B1: Sclerostin Ile119Glu (ligand, UniProt Q9BQB4 24-213, looked up)
chain: QGWQAFKNDATEIIPELGEYPEPPPELENNKTMNRAENGGRPPHHPFETKDVSEYSCRELHFTRYVTDGPCRSAKPVTELVCSGQCGPARLLPNAEGRGKWWRPSGPDFRCIPDRYRAQRVQLLCPGGEAPRARKVRLVASCKCKRLTRFHNQSELKDFGTEAARPQKGRKPRPRARSAKANQAELENAY
notes: also called sclerostin I119E
fold loss in affinity against wild-type sclerostin [1]: 19 fold
inhibition of Wnt1-dependent signaling (reporter induction) (Wnt1-dependent signaling): impaired

B2: Ac-CNSIKLC-am (disulfide) (peptide)
peptide: Ac-CNSIKLC-NH2
modifications: disulfide 1-7 (inferred)
notes: also called CX5C class member of Exemplary Family 2
binding result [2]: binds

B3: Ac-GSLCSNRIKPDTHCSS-am (disulfide) (peptide)
peptide: Ac-GSLCSNRIKPDTHCSS-NH2
modifications: disulfide 4-14 (inferred)
notes: also called Peptide C; CX9C class member of Exemplary Family 2
binding result [2]: binds

B4: Wnt9b: Wnt9b, carrier-free protein from R&D Systems (protein, UniProt O14905 23-357, looked up)
Protein Wnt-9b: SYFGLTGREVLTPFPGLGTAAAPAQGGAHLKQCDLLKLSRRQKQLCRREPGLAETLRDAAHLGLLECQFQFRHERWNCSLEGRMGLLKRGFKETAFLYAVSSAALTHTLARACSAGRMERCTCDDSPGLESRQAWQWGVCGDNLKYSTKFLSNFLGSKRGNKDLRARADAHNTHVGIKAVKSGLRTTCKCHGVSGSCAVRTCWKQLSPFRETGQVLKLRYDSAVKVSSATNEALGRLELWAPARQGSLTKGLAPRSGDLVYMEDSPSFCRPSKYSPGTAGRVCSREASCSSLCCGRGYDTQSRLVAFSCHCQVQWCCYVECQQCVQEELVYTCKH
effect of LRP6 BMD mutations on binding to LRP6 E1E2 (in words) [3]: little to no effect
change in affinity for the LRP6 E1E2 BMD variants compared to wild type ([3]; five substitutions characterized): ≤ 5 fold

B5: Ac-CNSIKCL-am (disulfide) (peptide)
peptide: Ac-CNSIKCL-NH2
modifications: disulfide 1-6 (inferred)
notes: also called CX4C class member of Exemplary Family 2
binding result [2]: binds

B6: Ac-SNSIKFYA-am (peptide)
peptide: Ac-SNSIKFYA-NH2
notes: also called linear peptide from Exemplary Family 1; parent Ile peptide
binding result [2]: binds

Source: US20140235820A1, “METHODS AND COMPOSITIONS FOR MODULATING THE Wnt PATHWAY” (Genentech, Inc., priority 2010, published 2014)
